Results: patent publication US5972608

Assays:
[1] = test system: SalI restriction endonuclease; assay: cleavage_in_vitro; conditions: 125 mM NaCl
[2] = test system: SWI/SNF complex (Saccharomyces cerevisiae); assay: cleavage_in_vitro; conditions: kcat of nucleosome remodeling, SalI-coupled; 1 mM ATP, 125 mM NaCl, 2.5 mM MgCl2; no stimulation without ATP or with ATPgS

Substance	activity ([1]; naked DNA, 2.5 mM MgCl2, 37 C, +/-0.03e-4) [U^-1 min^-1]	activity ([1]; second slow phase, nucleosomal DNA, Kconf 3.2e-3, 2.5 mM MgCl2) [U^-1 min^-1]	activity [2] [min⁻¹]
11-mer 5S SalI array template (pCL7c)	0.000286		
11-mer 5S SalI nucleosome array (pCL7c template with histone octamers)		9.19e-07	0.22
